“Also recorded” adds a separate entry of the source.
B1: R7P1D5: TCR, alpha chain SEQ ID NO:55 and beta chain SEQ ID NO:63, MAG-003-specific, from HLA-A2 positive donor (protein, listed as Homo sapiens)
alpha: MKTFAGFSFLFLWLQLDCMSRGEDVEQSLFLSVREGDSSVINCTYTDSSSTYLYWYKQEPGAGLQLLTYIFSNMDMKQDQRLTVLLNKKDKHLSLRIADTQTGDSAIYFCAEYSSASKIIFGSGTRLSIRPNIQNPDPAVYQLRDSKSSDKSVCLFTDFDSQTNVSQSKDSDVYITDKTVLDMRSMDFKSNSAVAWSNKSDFACANAFNNSIIPEDTFFPSPESSCDVKLVEKSFETDTNLNFQNLSVIGFRILLLKVAGFNLLMTLRLWSS
beta: MGSWTLCCVSLCILVAKHTDAGVIQSPRHEVTEMGQEVTLRCKPISGHDYLFWYRQTMMRGLELLIYFNNNVPIDDSGMPEDRFSAKMPNASFSTLKIQPSEPRDSAVYFCASRANTGELFFGEGSRLTVLEDLKNVFPPEVAVFEPSEAEISHTQKATLVCLATGFYPDHVELSWWVNGKEVHSGVSTDPQPLKEQPALNDSRYCLSSRLRVSATFWQNPRNHFRCQVQFYGLSENDEWTQDRAKPVTQIVSAEAWGRADCGFTSESYQQGVLSATILYEILLGKATLYAVLVSALVLMAMVKRKDSRG
B2: R10P2G12: TCR, alpha chain SEQ ID NO:71 and beta chain SEQ ID NO:79, MAG-003-specific (protein, listed as Homo sapiens)
alpha: MLTASLLRAVIASICVVSSMAQKVTQAQTEISVVEKEDVTLDCVYETRDTTYYLFWYKQPPSGELVFLIRRNSFDEQNEISGRYSWNFQKSTSSFNFTITASQVVDSAVYFCALSEGNSGNTPLVFGKGTRLSVIANIQNPDPAVYQLRDSKSSDKSVCLFTDFDSQTNVSQSKDSDVYITDKTVLDMRSMDFKSNSAVAWSNKSDFACANAFNNSIIPEDTFFPSPESSCDVKLVEKSFETDTNLNFQNLSVIGFRILLLKVAGFNLLMTLRLWSS
beta: MGIRLLCRVAFCFLAVGLVDVKVTQSSRYLVKRTGEKVFLECVQDMDHENMFWYRQDPGLGLRLIYFSYDVKMKEKGDIPEGYSVSREKKERFSLILESASTNQTSMYLCASSLSSGSHQETQYFGPGTRLLVLEDLKNVFPPEVAVFEPSEAEISHTQKATLVCLATGFYPDHVELSWWVNGKEVHSGVSTDPQPLKEQPALNDSRYCLSSRLRVSATFWQNPRNHFRCQVQFYGLSENDEWTQDRAKPVTQIVSAEAWGRADCGFTSESYQQGVLSATILYEILLGKATLYAVLVSALVLMAMVKRKDSRG

Columns and labels:
[1] = target: HLA-A*0201 molecule (Homo sapiens, UniProt P04439, D140Y/D185E/D98H/E176V/E277Q/G131W/G231S/I119V/I121R/I166T/I218V/L300P/L318F/N151K/N90K/P208A/P217A/Q86G/Q94H/R138H/R169H/T345S); settings: cited from earlier work
[2] = target: T1, MHC/MAG-003 complex (Homo sapiens, UniProt P04439+P43358, D140Y/D185E/D98H/E176V/E277Q/G131W/G231S/I119V/I121R/I166T/I218V/L300P/L318F/N151K/N90K/P208A/P217A/Q86G/Q94H/R138H/R169H/T345S); assay: IFN-γ release assay: TCR-RNA-electroporated CD8+ T-cells co-incubated with peptide-loaded target cells; format: cell-based; settings: target peptide (MAG-003) titration, IFN-γ release
T1 construct: endogenous in cells
Description: In another aspect, to obtain T-cells expressing TCRs of the present description, TCR RNAs were synthesized by techniques described in the art, e.g., in vitro transcription systems. The in vitro-synthesized TCR RNAs were then introduced into primary CD8+ T-cells obtained from healthy donors by electroporation to re-express tumor specific TCR-alpha and/or TCR-beta chains.
To determine specificity and affinity of TCRs, the transformed CD8+ T-cells were co-incubated with MAG-003-loaded target cells or with target cells loaded with homologous but unrelated peptide RABGAP1L-001 (SEQ ID NO:91), AXIN1-001 (SEQ ID NO:92), ANO5-001 (SEQ ID NO:93), TPX2-001 (SEQ ID NO:94), SYNE3-001 (SEQ ID NO:95), MIA3-001 (SEQ ID NO:96), HERC4-001 (SEQ ID NO:97), PSME2-001 (SEQ ID NO:98), HEATR5A-001 (SEQ ID NO:99) or CNOT1-003 (SEQ ID NO:100) or control peptide NYESO1-001 (SEQ ID NO:101), followed by IFN-γ release assay. Unloaded target cells and CD8+ T-cells alone served as controls. IFN-γ secretion from CD8+ T-cells is indicative of T-cell activation with cytotoxic activity.
As shown in FIGS. 5-7 all primary CD8+ T-cells transformed with TCRs of the present disclosure, after co-incubation with MAG-003-loaded target cells, released much higher levels of IFN-γ than that stimulated by unrelated peptide-loaded target cells, and the controls.

[3] = target: MHC/MAG-003 tetramer (Homo sapiens, UniProt P04439+P43358, D140Y/D185E/D98H/E176V/E277Q/G131W/G231S/I119V/I121R/I166T/I218V/N151K/N90K/P208A/P217A/Q86G/Q94H/R138H/R169H); assay: Tetramer staining of TCR-RNA-electroporated CD8+ T-cells, MHC/MAG-003 tetramer; format: binding
Source text: (§1) FIG. 8 show MHC/MAG-003 tetramer or MHC/NYESO1-001 tetramer staining of CD8+ T-cells electroporated with alpha and beta chain RNA of TCRs R7P1 D5, R20P1H7 and R10P2G12 (Table 2), respectively. CD8+ T-cells electroporated with RNA of 1G4 TCR that specifically binds to MHC/NYESO1-001 complex and mock electroporated CD8+ T-cells served as controls.
(§2) T-cell activation was further confirmed using a tetramer staining technique to detect MHC/MAG-003-binding activated cytotoxic T-cells. As shown in FIG. 8 and Table 11, a higher percentage of TCR-expressing CD8+ T-cells were stained positive fluorescent-labeled MHC/MAG-003 tetramer than that with MHC/NYESO1-001 control tetramer or mock control. […] The alpha and beta chains of TCR 1G4 are shown in SEQ ID NO:89 and 90, respectively: […]

[4] = test system: MHC/NYESO1-001 tetramer; assay: Tetramer staining of TCR-RNA-electroporated CD8+ T-cells, MHC/NYESO1-001 control tetramer; format: binding, human
Source text: as §1, §2

[5] = test system: A-375 (human melanoma cell line, positive for HLA-A2 and MAG-003 expression); assay: IFNγ release, TCR-expressing CD8+ T-cells co-incubated with A-375; format: cell-based; settings: for IFNγ release: Example 4, A-375, HLA-A2-positive and MAG-003-positive; for T-cell activation (IFN-γ release): Example 6, A-375 expressing HLA-A*02 and MAGEA4
Description: (§3) To determine efficacy of T-cells expressing TCRs described herein, primary CD8+ T-cells electroporated with RNA of the TCRs R7P1 D5, R20P1H7 and R10P2G12 were co-incubated with different human cancer cell lines, e.g., A-375 (human melanoma cell line, which is positive for HLA-A2 and MAG-003 expression), T98G (human glioblastoma cell line, which is HLA-A2-positive and MAG-003-negative), and SK-BR-3 (human breast cancer cell line, which is HLA-A2-negative and MAG-003-negative), followed by IFNγ release assay.
(§4) TCRs of interest were expressed in human T cells via RNA electroporation and the T cells were assessed for IFN-γ release after co-culture with different target cells, such as T2 cells loaded with different peptides as well as tumor cell lines and primary cells from healthy tissues. T-cell activation data are shown in absolute IFN-γ levels or a normalized way as indicated below.
(§5) Efficacy of CD8+ T cells expressing TCRs R7P1 D5, R10P2G12 and R20P1H7 was determined by T cell activation studies (IFN-γ release) using different tumor cell lines as target cells. The characterization of the safety profile of TCRs of interest was approached by testing the potential activation of TCR-expressing T cells upon co-culture with isolated primary cell types from healthy tissues and induced pluripotent stem cell (iPSC)-derived cell types from HLA-A*02-positive donors (Table 13). Cell types were selected in a manner to cover most of the critical organs like e.g. brain, heart and liver and different cell types as epithelium, endothelium or smooth muscle. Tumor cell lines were analyzed side-by-side as positive and negative controls.
(§6) Normalization Method for IFNγ Release: Meannorm(TCRoi;co)=[mean(TCRoi;co)−mean(TCRoi;effector only)]−[mean(mock;co)−mean(mock;effector only)]

[6] = test system: T98G (human glioblastoma cell line, HLA-A2-positive and MAG-003-negative); assay: IFNγ release, TCR-expressing CD8+ T-cells co-incubated with T98G; format: cell-based; settings: Example 4, T98G, compared with effector cell only control
Description: as §3

[7] = test system: SK-BR-3 (human breast cancer cell line, HLA-A2-negative and MAG-003-negative); assay: IFNγ release, TCR-expressing CD8+ T-cells co-incubated with SK-BR-3; format: cell-based; settings: Example 4, SK-BR-3, compared with effector cell only control
Description: as §3

[8] = test system: human non-small cell cancer cell line, H1755 (NCI-H1755); assay: IFNγ release, TCR-expressing CD8+ T-cells co-incubated with H1755; format: cell-based; settings: for T-cell activation (IFN-γ release): Example 6, NCI-H1755 expressing HLA-A*02 and MAGEA4
Description: as §3, §4, §5, §6

[9] = test system: HLA-A*02 positive cell types from healthy tissues; assay: Safety: IFN-γ release upon co-culture with primary and iPSC-derived cell types from healthy tissues; format: cell-based, human; settings: E:T ratio 1:1, 20 h, ELISA, normalized
Source text: FIG. 13 T cells transfected with RNA coding for TCR R7P1 D5, R10P2G12, R20P1H7, mock or the control TCR 1G4 (SEQ ID NO:X) were co-cultured with different primary human healthy tissue cells (see table 13 for abbreviations), the target negative tumor cell line MCF-7 and the MAGEA4- and NY-ESO1-positive cell lines A-375 and NCI-H1755. TCRs R7P1D5, R10P2G12, R20P1H7 and 1G4 expression in T cells was achieved by electroporation using an RNA vector. […] E:T ratio 1:1, 20,000 cells each, mean of IFN-γ release after 20 h from replicates is shown as measured by ELISA. Error bars indicate standard deviations. Results were normalized by subtraction of IFN-γ release from TCR-transfected T cells only and IFN-γ release due to co-culture of Target cells and T cells not expressing TCR of interest.
as §4, §5, §6
The respective CVnorm was calculated: CVnorm(TCRoi;co)=[CV(TCRoi;co)^2+CV(TCRoi;effector only)^2+CV(mock;co)^2+CV(mock;effector only)^2]^[½] TCRoi=effector cells expressing TCR of interest Mock=effector cells without exogenous TCR expression Co=effector cells co-cultured with target cells Effector only=effector cells not co-cultured Mean(norm)=mean IFNγ release (normalized) CV(norm)=coefficient of variation (normalized) Results: […]

Molecule | binding affinity and stability towards HLA-A*0201 molecule [1] | EC50 [2] | % MAG-003 TET-positive primary CD8+ T-cells [3] | % NYESO1-001 TET-positive primary CD8+ T-cells [4] | IFNγ release [5] | T-cell activation (IFN-γ release) [5] | IFNγ release [6] | IFNγ release [7] | IFNγ release ([8]; Example 4, H1755, data not shown) | T-cell activation (IFN-γ release) [8] | T-cell activation (IFN-γ release) by healthy tissue cells [9] | T-cell activation (IFN-γ release) by healthy tissue cells ([9]; listed as R7P1 D5)
YLLEHVVRV (listed as Homo sapiens) [p286-1Y2L] | potent binding affinity and stability |  |  |  |  |  |  |  |  |  |  | 
B1 |  | ~3 nM | 7.99% | 0.87% | IFNγ release was observed | activity | basal levels of IFNγ release | basal levels of IFNγ release | increased IFNγ release | activity | did not lead to significant TCR-mediated recognition and T-cell activation | no activation was observed
B2 |  |  | 5.38% | 0.87% | IFNγ release was observed | activity | basal levels of IFNγ release | basal levels of IFNγ release |  | activity | no activation was observed; also recorded: did not lead to significant TCR-mediated recognition and T-cell activation | 

From patent US10889629B2, “Transfected T-cells and T-cell receptors for use in immunotherapy against cancers” (IMMATICS BIOTECHNOLOGIES GMBH, priority 2016, dated 2021)
